The record followed here is US10494423B2, “Maytansinoid derivatives with peptide linker and conjugates thereof” (priority 2011, dated 2019).

The assay deals with T1, cathepsin B (Bos taurus, UniProt P07688).
T1 construct: cathepsin B (bovine spleen; EMD Biosciences); purchased EMD Biosciences; host or cells: bovine spleen (tissue-derived enzyme)
Description: In vitro cleavage of conjugate by cathepsin B. Format: biochemical, bovine. As to conditions: 4.6 μM conjugate, 0.9 μM cathepsin B, pH 6.0, 37° C., 0-26 h. The protocol: huC242-3b conjugate (4.6 μM) was incubated with 0.9 μM cathepsin B (bovine spleen; EMD Biosciences) in pH 6.0 buffer containing 0.6 mM CaCl2/MgCl2 and 2 mM DTT (dithiothreitol) at 37° C. 100 μl aliquots were taken at various time points (0, 1, 3, 8, 17, and 26 h) and free maytansinoids were quantified using a mixed-mode chromatography method (Fleming, et al, Analytical Biochemistry, 2005, 340, 272). Briefly, a HISEP shielded hydrophobic phase column (5 μm particle size, 4.6×250 mm length, Supelco, Bellefonte, Pa., USA) was used for analyzing Ab-DM1 conjugates. Detection was at 252 and 280 nm (extracted from PDA spectra). The flow rate was 0.7 ml/min. Mobile phase A consisted of 100 mM ammonium acetate (pH 7.0). Mobile phase B was 100% acetonitrile. The column was equilibrated at 25% B followed by a linear gradient over 25 min to 40% B after sample injection. […] Synthesized compound 5 had the same retention time and mass spectrum as this metabolite.

B1: huC242-3b: huC242 antibody conjugated via SMCC linker to compound 2; 3.3 maytansinoids per antibody (conjugate, chains of the INN, looked up)
VH: QVQLVQSGAEVKKPGETVKISCKASDYTFTYYGMNWVKQAPGQGLKWMGWIDTTTGEPTYAQKFQGRIAFSLETSASTAYLQIKSLKSEDTATYFCARRGPYNWYFDVWGQGTTVTVSS
VL: DIVMTQSPLSVPVTPGEPVSISCRSSKSLLHSNGNTYLYWFLQRPGQSPQLLIYRMSNLVSGVPDRFSGSGSGTAFTLRISRVEAEDVGVYYCLQHLEYPFTFGPGTKLELK
modifications: SMCC-linked maytansinoid compound 2, DAR 3.3
notes: huC242 antibody conjugated via SMCC linker to compound 2; 3.3 maytansinoids per antibody
Turning to B1, the “released metabolite on cathepsin B cleavage” value is reported as “sole released metabolite 5 was detected”.
